The text below walks through data of publication PMC8983666, “Structural and biochemical characterisation of the Providencia stuartii arginine decarboxylase shows distinct polymerisation and regulation” (Communications Biology, 2022).

Data set [1] has as its system N=C(N)NCCC[C@H](N)C(=O)O. Nature of the data set: purified protein. To be noted: pH 5 (100 mM acetic acid-sodium acetate), 100 mM NaCl, 0.1 mM PLP, 10% glycerol, 20 °C, 10 nM Adc, decarboxylation to agmatine, parentheses = 2.5%-97.5% confidence interval.
In data set [2] the target is Providencia stuartii arginine decarboxylase Adc (Providencia stuartii). Put plainly: mass photometry; Refeyn OneMP; 30 nM Adc at pH 5.0 and 20 nM Adc at pH 6.5; only the decamer and species below it analysed.
Data set [3] has the same target. Nature of the data set: cryo-EM structure; isolated Adc decamer, about 0.25 mg/mL, 25 mM MES, 150 mM NaCl, 1 mM DTT, 0.1 mM PLP, pH 6.5; D5 symmetry.

Regarding “Providencia stuartii arginine decarboxylase (Adc) (Providencia stuartii)”, in data set [1], the Km was 0.331 (0.28, 0.38) mM and the kcat was 102 (97, 108) s^-1.

Consider “Providencia stuartii arginine decarboxylase Adc (enzyme)”, for which the stoichiometry N in data set [2] and in data set [3] was 10 in each case.

The stoichiometry N is a count of units in the complex or per binding partner.
